Measured values as given in patent US20220048999A1 (Genmab, published 2022).
Positions count from the first letter of the chain named. In names and notes the source's numbering stands.

Legend:
[1] = target: T1, human B7H4, full length, on cells (human, UniProt Q7Z7D3 25-282); test: flow cytometry, HEK-293F cells transfected with human B7H4 (panel Human B7H4), about 0.0004-30 µg/ml, MFI PE
T1 construct: On transiently transfected HEK cells or on B7H4-expressing human tumor cell lines; also called VTCN1
T1 sequence: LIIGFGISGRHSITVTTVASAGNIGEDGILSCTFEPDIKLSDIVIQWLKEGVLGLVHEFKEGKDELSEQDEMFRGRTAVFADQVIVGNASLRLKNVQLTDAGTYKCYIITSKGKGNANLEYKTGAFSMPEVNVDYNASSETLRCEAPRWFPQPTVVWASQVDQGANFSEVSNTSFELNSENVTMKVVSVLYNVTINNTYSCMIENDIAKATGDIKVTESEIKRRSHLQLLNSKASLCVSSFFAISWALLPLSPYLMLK
Experimental: (§1) Cells (3×10⁴ cells/well) were incubated in polystyrene 96-well round-bottom plates (Greiner bio-one, cat. no. 650180) with serial dilutions of antibodies (ranging from 0.000458 to 30 μg/mL in 4-fold dilution steps) in 100 μL PBS/0.1% BSA/0.02% azide (staining buffer) at 4° C. for 30 min. Experiments were performed in technical duplicate. After washing twice in staining buffer, cells were incubated in 50 μL secondary antibody at 4° C. for 30 min. As a secondary antibody, R-Phycoerythrin (PE)-conjugated goat-anti-human IgG F(ab′)₂ (1:500 in FACS buffer; Jackson ImmunoResearch Laboratories, Inc., West Grove, Pa., cat. no. 109-116-098), was used. Cells were washed twice in staining buffer, re-suspended in 30 μL FACS buffer containing Topro-3 (1:10,000 dilution) and analyzed on an iQue Screener (Intellicyt Corporation, USA). Binding curves were analyzed using non-linear regression (sigmoidal dose-response with variable slope) using Graph Pad Prism V7.02 software (GraphPad Software, San Diego, Calif., USA).

[2] = target: T2, cynomolgus monkey (Macaca fascicularis) B7H4 transcript 1, full length, on HEK-293F cells (cynomolgus monkey, UniProt Q7Z7D3 25-282 (human entry)); test: flow cytometry, HEK-293F cells transfected with cynomolgus monkey B7H4 (panel Cynomolgus monkey B7H4), about 0.0004-30 µg/ml, MFI PE
T2 construct: also called cynomolgus B7H4
T2 chain: T1 sequence with L53I, F242L, S252A
Experimental: as §1

[3] = target: T3, mouse (Mus musculus) B7H4, full length, on HEK-293F cells (mouse, UniProt Q7TSP5 25-257); test: flow cytometry, HEK-293F cells transiently transfected with mouse B7H4 (panel Mouse B7H4), 0.000458-30 µg/ml, PE-anti-human IgG, MFI PE
T3 sequence: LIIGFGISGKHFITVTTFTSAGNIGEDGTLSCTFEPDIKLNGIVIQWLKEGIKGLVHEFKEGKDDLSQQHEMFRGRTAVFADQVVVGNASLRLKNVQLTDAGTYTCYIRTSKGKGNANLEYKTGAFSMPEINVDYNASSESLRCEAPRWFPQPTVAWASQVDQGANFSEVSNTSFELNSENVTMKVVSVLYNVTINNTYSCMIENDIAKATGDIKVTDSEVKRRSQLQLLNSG
Experimental: as §1

B1: IgG1-B7H4-C1-N52S-FEAR (antibody, V domains shown)
VH: QVQLQQWGAGLLKPSETLSLTCAVYGGSFSGYYWSWIRQPPGKGLEWIGEISHSGSTNYNPSLKSRVTISIDTSKNQFSLKLTSVTAADTAVFYCARGLFNWNFDSWGQGTLVTVSS
VL: DIQMTQSPSSLSASVGDRVTITCRASQGIRNDLGWYQQKPGKAPKRLIYGASSLQSGVPSRFSGSGSGTEFTLTISSLQPEDFATYYCLQHNSYPRTFGQGTTVEIKR
notes: Full-length human IgG1 with L234F, L235E, D265A, K409R (FEAR), kappa light chain; also called IgG1-B7H4-C1-052S-FEAR; IgG1-B7H4-C1-N525-FEAR
[1]
  EC50 (read off the curve): ~0.04 µg/mL
[2]
  EC50 (read off the curve): ~0.1 µg/mL
[3]
  EC50 (read off the curve): ~0.4 µg/mL
